Laboratory results published in US20230183373A1 (MINERVA BIOTECHNOLOGIES, published 2023).

B6: PSMGFR minus 10 amino acids from the C-terminus (peptide)
peptide: GTINVHDVETQFNQYKTEAASRYNLTISDVSVSDV
notes: also called C-10; C-10 PSMGFR

Columns and labels:
[1] = target: T1, PSMGFR peptide (Primary Sequence of the MUC1 Growth Factor Receptor); assay: ELISA, surface coated with PSMGFR peptide (FIG. 5)
T1 construct: Synthetic peptide; also called MUC1* peptide; MUC1* PSMGFR peptide
T1 peptide: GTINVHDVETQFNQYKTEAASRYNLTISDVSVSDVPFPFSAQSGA

[2] = target: T1, PSMGFR peptide (Primary Sequence of the …); assay: ELISA on PSMGFR (FIG. 21A)
[3] = target: B6; assay: ELISA on immobilised N-10 and C-10 peptides (FIG. 2E)
[4] = target: T1, PSMGFR peptide (Primary Sequence of the …); assay: ELISA on immobilised PSMGFR, N-10 and C-10 (FIG. 22A)
[5] = target: T1, PSMGFR peptide (Primary Sequence of the …); assay: ELISA on immobilised PSMGFR (FIG. 2B)
[6] = target: T2, PSMGFR minus 10 amino acids from the N-terminus; assay: selection screens (FIG. 3A-C cited)
T2 construct: also called N-10; N-10 PSMGFR
T2 peptide: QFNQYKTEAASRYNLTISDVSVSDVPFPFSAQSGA

[7] = target: T1, PSMGFR peptide (Primary Sequence of the …); assay: ELISA on immobilised PSMGFR (FIG. 2C)
NME7-AB = target: T3, NME7-AB (human, UniProt Q9Y5B8 92-376, limits assumed); assay: ELISA on immobilised C-10 peptide (FIG. 2A)
T3 construct: also called NM23-H7
T3 sequence: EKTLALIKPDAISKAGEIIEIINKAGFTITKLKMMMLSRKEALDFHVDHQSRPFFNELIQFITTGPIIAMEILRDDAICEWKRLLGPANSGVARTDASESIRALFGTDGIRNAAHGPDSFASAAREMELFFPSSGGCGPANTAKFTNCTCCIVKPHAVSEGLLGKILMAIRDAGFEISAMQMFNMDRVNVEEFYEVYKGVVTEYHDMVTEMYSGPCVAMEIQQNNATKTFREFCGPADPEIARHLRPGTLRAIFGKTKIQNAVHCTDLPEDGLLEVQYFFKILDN

dimeric NME1 = target: T4, dimeric NME1 (human, UniProt P15531 1-152, limits assumed); assay: ELISA on immobilised C-10 peptide (FIG. 2D)
T4 construct: Used in dimer form; also called NM23-H1 dimers; dimeric NM23-H1
T4 sequence (P15531 whole entry): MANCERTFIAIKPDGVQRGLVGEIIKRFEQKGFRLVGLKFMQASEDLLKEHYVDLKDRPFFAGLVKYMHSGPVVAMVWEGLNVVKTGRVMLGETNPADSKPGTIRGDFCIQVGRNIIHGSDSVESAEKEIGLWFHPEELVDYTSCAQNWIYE

B1: humanized MN-C2 scFv (scFv, V domains shown)
VH: EVQLVESGGGLVKPGGSLRLSCAASGFTFSGYAMSWVRQAPGKGLEWVSTISSGGTYIYYPDSVKGRFTISRDNAKNSLYLQMNSLRAEDTAVYYCARLGGDNYYEYFDVWGKGTTVTVSS
VL: DIVLTQSPASLAVSPGQRATITCRASKSVSTSGYSYMHWYQQKPGQPPKLLIYLASNLESGVPARFSGSGSGTDFTLTINPVEANDTANYYCQHSRELPFTFGGGTKVEIKR
notes: also called huMN-C2 scFv; hu MN-C2 scFv; not shown: Linker; which one was te; 6xHis tag (detected with Anti-Penta-His)
With B1 as the binder, how does the EC50 [1] read?
The EC50 was about 0.333 µM.

B2: hu MN-E6 scFv-Fc-Y407R-hingeless (Fc fusion)
chain: AAQPAEVQLVESGGGLVKPGGSLRLSCAASGFTFSRYGMSWVRQAPGKRLEWVSTISGGGTYIYYPDSVKGRFTISRDNAKNTLYLQMNSLRAEDTAVYYCTRDNYGRNYDYGMDYWGQGTLVTVSSGGGGSGGGGSGGGGSEIVLTQSPATLSLSPGERATLTCSATSSVSYIHWYQQRPGQSPRLLIYSTSNLASGIPARFSGSGSGSDYTLTISSLEPEDFAVYYCQQRSSSPFTFGSGTKVEIKAPELLGGPSVFLFPPKPKDTLMISRTPEVTCVVVDVSHEDPEVKFNWYVDGVEVHNAKTKPREEQYNSTYRVVSVLTVLHQDWLNGKEYKCKVSNKALPAPIEKTISKAKGQPREPQVYTLPPSREEMTKNQVSLTCLVKGFYPSDIAVEWESNGQPENNYKTTPPVLDSDGSFFLRSKLTVDKSRWQQGNVFSCSVMHEALHNHYTQKSLSLSPGK
notes: The construct derives from the pSECTag2 E6 scFv-Fc, so it carries the leader and AAQPA before the scFv; also called MN-E6 scFv-Fc with deleted hinge and Y407R
Does B2 bind [2]?
Result: binds

B3: mouse monoclonal antibody MN-C3 (antibody, V domains shown)
VH: QVQLQQSGPELVRPGVSVKISCKGSGYRFTDYAMNWVKQSHAKSLEWIGVISTFSGNTNFNQKFKGKATMTVDKSSSTAYMELARLTSEDSAMYYCARSDYYGPYFDYWGQGTTLTVSS
VL: DVLMTQTPLSLPVSLGDQASISCRSSQTIVHSNGNTYLEWYLQKPGQSPKLLIYKVSNRFSGVPDRFSGSGSGTDFTLKINRVEAEDLGVYYCFQGSHVPFTFGSGTKLEIK
notes: Mouse monoclonal IgG
Does B3 bind [3]?
Result: binds

Does B3 bind [4]?
Result: binds

B4: mouse monoclonal antibody MN-C2 (antibody, V domains shown)
VH: EVQLEESGGGLVKPGGSLKLSCAASGFTFSGYAMSWVRQTPEKRLEWVATISSGGTYIYYPDSVKGRFTISRDNAKNTLYLQMSSLRSEDTAMYYCARLGGDNYYEYFDVWGAGTTVTVSS
VL: DIVITQSTASLGVSLGQRATISCRASKSVSTSGYSYMHWYQQRPGQPPKLLIYLASNLESGVPARFSGSGSGTDFTLNIHPVEEEDAATYYCQHSRELPFTFGGGTKLEIKR
notes: Mouse monoclonal IgG; the printed entries run a few residues into the constant regions
Which results are given for B4?
binding result [5]: binds; binding result [6]: binds

B5: mouse monoclonal antibody MN-E6 (antibody, V domains shown)
VH: EVKVVESGGDLVKPGGSLKLSCVVSGFTFSRYGMSWVRQTPGKRLEWVATISGGGTYIYYPDSVKGRFTISRDNAKNTLYLQMSSLKSEDTAMYHCTRDNYGRNYDYGMDYWGQGTSVTVSS
VL: QIVLTQSPAIMSASPGEEVTLTCSATSSVSYIHWFQQRPGTSPKLWIYSTSNLASGVPVRFSGSGYGTSYSLTISRMEAEDAATYYCQQRSSSPFTFGSGTKLEIK
notes: Mouse monoclonal IgG; the constant regions are not; also called parent mouse MN-E6 antibody
Does B5 bind [7]?
Result: binds

Does B5 bind [6]?
Result: binds

Does B6 bind (NME7-AB)?
Result: no binding

Does B6 bind (dimeric NME1)?
Result: no binding
